The target of one assay is T1, Spike-GFP (SARS-CoV-2 (Wuhan-Hu-1 reference; …, UniProt P0DTC2).
T1 construct: also called S-GFP
The experiment in a line: immunostaining of cells or tissue. The conditions noted are these: partners not purified.

The target of assay [1] is T2, full-length Spike protein of SARS-CoV-2 (SARS-CoV-2 (Wuhan-Hu-1 reference; …, UniProt P0DTC2).
T2 construct: source: bought: SINOBiological; produced in a baculovirus expression system
The experiment in a line: far-Western, overlay or dot blot. The note with it: one partner purified.

B1: intimin-Nanobody fusion of clone W23 (bacterial display) (VHH)
VHH: QVQLVESGGGLVQPGESLRLSCAASGNIFGIAAVHWFRKAPGKEREFTAGFGSDGSTNYANSVKGRFTISRDNAKNTTYLQMNSLKPEDTAVYYCHALIKNELGFLDYWGPGTQVTVSS
notes: also called clone W23 total protein extract
Regarding B1, the binding result (with Spike-GFP; in assay [1]) was “binds” in each case.

The record behind these values is publication PMC7870875 (Scientific Reports, 2021).
